How the values were obtained:
^3H-PGE2 ELISA (binding) = assay: ^3H-PGE2 ELISA (binding)
Method: Alternatively, prostaglandin binding was determined using a ^3H-PGE2 ELISA. Plates were coated at 50 μL/well with 5 μg/ml of goat anti-human IgG (Fc) (Thermo Scientific # 31170, Hudson, N.H.) or goat anti-mouse IgG (Fc) (Thermo Scientific # 31125, Hudson, N.H.) in PBS and incubated overnight at 4° C. The following day, plates were flicked and blotted dry. Plates were blocked with 200 μL/well of Superblock (Thermo Scientific # 37515, Hudson, N.H.) for 1 hour at room temperature. Plates were flicked and blotted dry. Monoclonal antibodies were diluted to 0.04 μg/ml in phosphate buffer solution with Tween 20 (PBST) (Abbott Bioresearch Center, Worcester, Mass.) and 10% Superblock and 50 μL of each antibody was added to each well of the pre-blocked ELISA plate at 2 ng/well and incubated for 1 hour at room temperature. Wells were washed 3 times with PBS+0.1% Tween-20. A serial 3-fold titration of ^3H-PGE2 (Perkin Elmer # NET-428, Waltham, Mass.) was prepared in PBST/10% Superblock. Fifty microliters of the ^3H-PGE2 solution was added to each well of the plate and incubated for 1 hour at room temperature. […] Plates were read using a TopCount reader (Perkin Elmer, Waltham, Mass.) with a 5 minute count delay. An EC50 number was determined using GraphPad Prism 5 (GraphPad Software, La Jolla, Calif.).

[1] = tested on: carrageenan-induced paw edema; assay: Carrageenan-induced footpad edema model; type: in vivo, C57.BL/6 mice
Method: Carrageenan-Induced Footpad Edema is an acute rodent model of innate immune function. The in vivo efficacy of mouse anti-PGE2 antibody 2B5-8.0 is assessed in a carragenan-induced paw edema model. The induction of paw inflammation with carrageenan is performed similarly as previously described (Joseph P. Portanova, et al. J. Exp. Med. 184: 883-891 (1996)). Intradermal (ID) injection of an inflammatory agent causes a rapid influx of neutrophils and fluid edema which peaks at approximately 4 hours, followed by an influx of macrophages and monocytes which peaks at approximately 48 hours. C57.BL/6 mice (8-10-week-old, Jackson Laboratories, Bar Harbor, Me.) were injected ID in the rear footpad with 30 μL of either PBS (left) or λ-carrageenen (Sigma Aldrich, St. Louis, Mo.) in PBS (right) at a concentration of 5.0 mg/mL (150 μg/mouse). Rear footpad thickness was measured by Dyer spring caliper model #310-119 at baseline (time=0), and 4 hours post carrageenan challenge. Significant difference for paw thickness was determined by comparing mean paw swelling for each treatment group to vehicle in a Student's two-tailed t-test. Mice were given a dose titration of an anti-PGE2 antibody (2B5-8.0) intraperitonially (IP) 18 hours prior to carrageenan challenge, or Indomethacin, PO 2 hours prior to challenge. The endpoint measured was the difference in paw swelling (edema) between right and left paws 4 hours after treatment.

[2] = ^3H-PGE2 competition ELISA (prostaglandin selectivity); type: binding
Method: Alternatively, prostaglandin selectivity was determined using a ^3H-PGE2 competition ELISA. Plates were coated with 50 μL/well of 5 μg/ml of goat anti-human IgG (Fc) (Thermo Scientific # 31170, Hudson, N.H.) or goat anti-mouse IgG (Fc) (Thermo Scientific # 31125, Hudson, N.H.) in PBS and incubated overnight at 4° C. The following day plates were flicked and blotted dry. Plates were blocked with 200 μL/well of Superblock (Thermo Scientific # 37515, Hudson, N.H.), 1 hour at room temperature. Plates were flicked and blotted dry. Monoclonal antibodies were diluted to 0.04 μg/ml in PBST (Abbott Bioresearch Center, Worcester, Mass.)/10% Superblock and 50 μL of each was added to each well (2 ng/well) of the pre-blocked ELISA plate and incubated for 1 hour at room temperature. Wells were washed 3 times with PBS/0.1% Tween-20. ^3H-PGE2 (Perkin Elmer # NET-428, Waltham, Mass.) was diluted in PBST/10% Superblock to 6 nM (2× stock). Each prostaglandin (Cayman Chemicals, Ann Arbor, Mich.) was prepared in PBST+10% Superblock at various concentrations ranging from 2000 μM (2× stock) to 0.00004 μM (2×). Equal volumes of the ^3H-PGE2 solution and of each prostaglandin dilution were mixed. Fifty microliters of this mixture was then added to each well of the plate and incubated for 1 hour at room temperature. Wells were washed manually 6 times with PBST/10% Superblock and 50 μL of scintillation fluid (Perkin Elmer # 6013621, Waltham, Mass.) added to each well. Plates were read using a TopCount reader (Perkin Elmer, Waltham, Mass.) with a 5 minute count delay. IC50 number was determined using GraphPad Prism 5 (GraphPad Software, La Jolla, Calif.). The cross reactivity index was then calculated by IC50 of PGE2/IC50 of other prostaglandin(s)

B1: 2B5-8.0: recombinant anti-PGE2 antibody from solved 2B5 sequence; VH SEQ ID NO 42, VL SEQ ID NO 43 (antibody, V domains shown)
VH: QVQLQQSGPELVRPGSSVKISCKASGYTFTKYWLGWVKQRPGHGLEWIGDIYPGYDYTHYNEKFKDKATLTVDTSSSTAYMQLSSLTSEDSAIYYCARSDGSSTYWGQGTLVTVSA
VL: DVLMTQTPLSLPVSLGDQASISCTSSQNIVHSNGNTYLEWYLQRPGQSPKLLIYKVSNRFSGVPDRFSGSGSGTVFTLKISRVEAEDLGVYYCFQVSHVPYTFGGGTKLEIKR
- EC50 (^3H-PGE2 ELISA (binding)): 0.253 nM
- Δ Paw Swelling (mm) ([1]; 10 mg/kg, i.p., 18 hours prior to carrageenan, 4 hours post challenge): 0.529 ± 0.04 mm
- % Inhibition ([1]; 10 mg/kg, i.p., paw swelling 4 hours post challenge): 38 ± 4.6%
- maximal inhibition of paw swelling ([1]; at 10 mg/kg): 40-50%
- PG Selectivity in ^3H-PGE2 competition ELISA (CRI %) 2,3-dinor-6-keto-PGF1α ([2]; 2,3-dinor-6-keto-PGF1α): 0.019%
- PG Selectivity in ^3H-PGE2 competition ELISA (CRI %) 5(S)-HETE ([2]; 5(S)-HETE): <0.01%
- PG Selectivity in ^3H-PGE2 competition ELISA (CRI %) 6-keto PGF1α ([2]; 6-keto PGF1α): 0.64%
- PG Selectivity in ^3H-PGE2 competition ELISA (CRI %) 8-iso PGF2α ([2]; 8-iso PGF2α): 0.092%
- PG Selectivity in ^3H-PGE2 competition ELISA (CRI %) 13,14-dihydroxyl-15-keto PGE2 ([2]; 13,14-dihydroxyl-15-keto PGE2): 0.012%
- PG Selectivity in ^3H-PGE2 competition ELISA (CRI %) 15-keto PGE2 ([2]; 15-keto PGE2): 0.013%
- PG Selectivity in ^3H-PGE2 competition ELISA (CRI %) 15R-Pinane TXA2 ([2]; 15R-Pinane TXA2): 0.00043%
- PG Selectivity in ^3H-PGE2 competition ELISA (CRI %) 19R-hydroxy PGE2 ([2]; 19R-hydroxy PGE2): 0.09%
- PG Selectivity in ^3H-PGE2 competition ELISA (CRI %) Arachidonic acid ([2]; Arachidonic acid): <0.01%
- PG Selectivity in ^3H-PGE2 competition ELISA (CRI %) Carbaprostacyclin ([2]; Carbaprostacyclin): 0.18%
- PG Selectivity in ^3H-PGE2 competition ELISA (CRI %) Carbocyclic TXA2 ([2]; Carbocyclic TXA2): 0.0005%
- PG Selectivity in ^3H-PGE2 competition ELISA (CRI %) Iloprost ([2]; Iloprost): 0.01%
- PG Selectivity in ^3H-PGE2 competition ELISA (CRI %) LTE4 ([2]; LTE4): 0.012%
- PG Selectivity in ^3H-PGE2 competition ELISA (CRI %) PGA2 ([2]; PGA2): 0.04%
- PG Selectivity in ^3H-PGE2 competition ELISA (CRI %) PGB2 ([2]; PGB2): 0.00038%
- PG Selectivity in ^3H-PGE2 competition ELISA (CRI %) PGD2 ([2]; PGD2): <1 × 10^−4%
- PG Selectivity in ^3H-PGE2 competition ELISA (CRI %) PGE1 ([2]; PGE1): 3.6%
- PG Selectivity in ^3H-PGE2 competition ELISA (CRI %) PGE2 ([2]; PGE2): 100%
- PG Selectivity in ^3H-PGE2 competition ELISA (CRI %) PGF2α ([2]; PGF2α): 0.05%
- PG Selectivity in ^3H-PGE2 competition ELISA (CRI %) PGI2 ([2]; PGI2): 0.16%
- PG Selectivity in ^3H-PGE2 competition ELISA (CRI %) Pinane TXA2 ([2]; Pinane TXA2): 0.00033%
- PG Selectivity in ^3H-PGE2 competition ELISA (CRI %) TXB2 ([2]; TXB2): <0.01%

Source: US8624002B2, “Prostaglandin E2 binding proteins and uses thereof” (AbbVie, Inc., priority 2008, dated 2014)
